In US7091311 (GlaxoSmithKline, dated 2006):
Where two headings read alike, the source gives them in different places. Each block holds one binder with its values, some of them ahead of it. Bridges are numbered along the chain shown (N, C = ends). Where no end group is shown, it is not given here. The star is where a group is joined. Biotin = O=C1N[C@H]2[C@H](CS[C@H]2CCCCC(=O)*)N1

Key:
full length human TPO-R [1] = molecular target: T1, full length human TPO-R (human, UniProt P40238 26-635); assay: cell-based or functional assay
T1 sequence (looked up): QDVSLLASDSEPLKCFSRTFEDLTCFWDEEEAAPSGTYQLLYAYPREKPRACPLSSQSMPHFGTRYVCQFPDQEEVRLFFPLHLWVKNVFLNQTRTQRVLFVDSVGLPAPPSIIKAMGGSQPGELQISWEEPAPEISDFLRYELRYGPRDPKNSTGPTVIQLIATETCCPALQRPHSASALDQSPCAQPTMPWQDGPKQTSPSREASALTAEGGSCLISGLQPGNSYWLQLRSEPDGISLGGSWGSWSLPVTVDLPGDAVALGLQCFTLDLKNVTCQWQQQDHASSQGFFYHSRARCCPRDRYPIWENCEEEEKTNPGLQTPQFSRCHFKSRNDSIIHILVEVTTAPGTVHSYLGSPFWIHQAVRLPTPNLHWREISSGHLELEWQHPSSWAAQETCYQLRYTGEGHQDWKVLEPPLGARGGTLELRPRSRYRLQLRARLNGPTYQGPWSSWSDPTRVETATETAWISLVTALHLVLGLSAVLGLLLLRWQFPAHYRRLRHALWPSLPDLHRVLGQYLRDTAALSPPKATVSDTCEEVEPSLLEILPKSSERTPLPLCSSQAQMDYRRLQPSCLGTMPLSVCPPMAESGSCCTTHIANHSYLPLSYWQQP

soluble TPO-R [2] = molecular target: T2, soluble TPO-R (UniProt P40238 26-491); assay: competition ELISA vs MBP-TPO156
T2 construct: extracellular domain; Immobilized through anti-HPAP antibody Ab179; also called thrombopoietin receptor; c-mpl
Description: (§1) The amount of alkaline phosphatase in each well was then determined using standard methods.
(§2) In this example cyclized compounds were subjected to three assays. First, $IC50$ valves were obtained as described above.

full length human TPO-R [3] = molecular target: T1, full length human TPO-R; assay: cell-based or functional assay; remark: listed apart in the source
soluble TPO-R [4] = molecular target: T3, soluble TPO-R (UniProt P40238 26-491); assay: competition ELISA vs MBP-TPO156
soluble TPO-R [5] = molecular target: T3, soluble TPO-R; assay: equilibrium binding ELISA, MBP-TPO or lacI-peptide tracer
full length human TPO-R [6] = molecular target: T1, full length human TPO-R; assay: cell-based or functional assay; remark: listed apart in the source
soluble TPO-R [7] = molecular target: T3, soluble TPO-R; assay: competition ELISA vs MBP-TPO156; remark: listed apart in the source
full length human TPO-R [8] = molecular target: T1, full length human TPO-R; assay: cell-based or functional assay; remark: listed apart in the source
soluble TPO-R [9] = molecular target: T3, soluble TPO-R; assay: competition ELISA vs MBP-TPO156; remark: listed apart in the source
Description: as §1, §2

full length human TPO-R [10] = molecular target: T1, full length human TPO-R; assay: cell-based or functional assay; remark: listed apart in the source
soluble TPO-R [11] = molecular target: T3, soluble TPO-R; assay: competition ELISA vs MBP-TPO156; remark: listed apart in the source
Description: as §1

soluble TPO-R [12] = molecular target: T3, soluble TPO-R; assay: equilibrium binding ELISA, MBP-TPO or lacI-peptide tracer; remark: listed apart in the source
soluble TPO-R [13] = molecular target: T2, soluble TPO-R; assay: competition ELISA vs MBP-TPO156; remark: listed apart in the source
Description: as §1, §2

soluble TPO-R [14] = molecular target: T2, soluble TPO-R; assay: competition ELISA vs MBP-TPO156; remark: listed apart in the source

- EC50 cell proliferation (full length human TPO-R [1]): ≤ 500 nM
- EC50 microphysiometer (full length human TPO-R [1]): ≤ 500 nM
- IC50 (soluble TPO-R [2]): ≤ 500 nM
B1: [drawing CHEM-US-00004] (SEQ ID NO:173) (peptide)
peptide: ADGPTLREWISFC
modifications: also: further groups not given here
notes: structure printed only as a drawing

- EC50 cell proliferation (full length human TPO-R [3]): ≤ 500 nM
- EC50 microphysiometer (full length human TPO-R [3]): ≤ 500 nM
- IC50 (soluble TPO-R [4]): ≤ 500 nM
B2: [drawing CHEM-US-00031] (SEQ ID NO:186)(SEQ ID NO:186) (peptide)
peptide: CADGPTLREWISF
modifications: also: further groups not given here
notes: as for B1

- IC50 (soluble TPO-R [5]): ≤ 500 nM
B3: S I E G P T L R E W L T S R T P H S (peptide)
peptide: SIEGPTLREWLTSRTPHS
notes: free synthetic peptide

- EC50 cell proliferation (full length human TPO-R [6]): ≤ 500 nM
- IC50 (soluble TPO-R [7]): ≤ 500 nM
B4: SEQ ID NO:173 compound, C-term, Gly addition (peptide)
peptide: ADGPTLREWISFCG
modifications: also: further groups not given here

- EC50 cell proliferation (full length human TPO-R [8]): ≤ 200000 nM
- EC50 microphysiometer (full length human TPO-R [8]): ≤ 200000 nM
- IC50 (soluble TPO-R [9]): ≤ 500 nM
B5: SEQ ID NO:12 cyclized, D - A (peptide)
peptide: CAAGPTLREWISFC
modifications: also: cyclized, mode not given here

- IC50 (soluble TPO-R [5]): ≤ 500 nM
B6: T I K G P T L R Q W L K S R E H T S (peptide)
peptide: TIKGPTLRQWLKSREHTS
notes: free synthetic peptide

- IC50 (soluble TPO-R [5]): ≤ 500 nM
B7: G G C A D G P T L R E W I S F C G G (peptide)
peptide: GGCADGPTLREWISFCGG
notes: free synthetic peptide

- EC50 cell proliferation (full length human TPO-R [8]): ≤ 500 nM
- EC50 microphysiometer (full length human TPO-R [8]): ≤ 200000 nM
- IC50 (soluble TPO-R [9]): ≤ 500 nM
B8: SEQ ID NO:12 cyclized, E - Q (peptide)
peptide: CADGPTLRQWISFC
modifications: also: cyclized, mode not given here

- EC50 cell proliferation (full length human TPO-R [10]): ≤ 500 nM
- IC50 (soluble TPO-R [11]): ≤ 500 nM
B9: [drawing CHEM-US-00060] (SEQ ID NO:194) (peptide)
peptide: CIEGPTLRQWLAARAC
modifications: cysteine pairing not given here; also: further groups not given here
notes: as for B1

- IC50 (soluble TPO-R [5]): ≤ 500 nM
B10: G N A D G P T L R Q W L E G R R P K N (peptide)
peptide: GNADGPTLRQWLEGRRPKN
notes: free synthetic peptide

- IC50 (soluble TPO-R [5]): ≤ 500 nM
B11: G G C A D G P T L R E W I S F C G G K (Biotin) (peptide)
peptide: GGCADGPTLREWISFCGGK(Biotin)
modifications: cysteine pairing not given here
notes: also called AF 12285

- IC50 (soluble TPO-R [12]): ≤ 500 nM
B12: G G C T L R E W L H G G F C G G (peptide)
peptide: GGCTLREWLHGGFCGG
notes: free synthetic peptide

- EC50 cell proliferation (full length human TPO-R [8]): ~200000 nM
- EC50 microphysiometer (full length human TPO-R [8]): ≤ 200000 nM
- IC50 (soluble TPO-R [13]): ≤ 500 nM
B13: SEQ ID NO:12 cyclized, F - A (peptide)
peptide: CADGPTLREWISAC
modifications: also: cyclized, mode not given here

- EC50 cell proliferation (full length human TPO-R [3]): ≤ 500 nM
- EC50 microphysiometer (full length human TPO-R [3]): ≤ 500 nM
- IC50 (soluble TPO-R [4]): ≤ 500 nM
B14: [drawing CHEM-US-00032] (SEQ ID NO:187)(SEQ ID NO:187) (peptide)
peptide: SVQCGPTLRQWLAARNHLS
modifications: also: further groups not given here
notes: as for B1

- EC50 cell proliferation (full length human TPO-R [3]): ≤ 500 nM
- EC50 microphysiometer (full length human TPO-R [3]): ≤ 500 nM
- IC50 (soluble TPO-R [14]): ≤ 500 nM
B15: cyclized monomer (SEQ ID NO:12) (peptide)
peptide: H-CADGPTLREWISFC-NH2
modifications: disulfide 1-14 (inferred)
notes: also called [drawing CHEM-US-00034]

- EC50 cell proliferation (full length human TPO-R [10]): ≤ 500 nM
- IC50 (soluble TPO-R [11]): ≤ 500 nM
B16: [H]-IEGPTLRQWLAARA-[NH2] (peptide)
peptide: H-IEGPTLRQWLAARA-NH2

- EC50 cell proliferation (full length human TPO-R [3]): ≤ 200000 nM
- IC50 (soluble TPO-R [4]): ~200000 nM
B17: [drawing CHEM-US-00033] (SEQ ID NO:188)(SEQ ID NO:188) (peptide)
peptide: MVGPTLRSGC
modifications: also: further groups not given here
notes: as for B1

- EC50 cell proliferation (full length human TPO-R [3]): ≤ 500 nM
- EC50 microphysiometer (full length human TPO-R [3]): ≤ 500 nM
- EC50 cell proliferation (full length human TPO-R [10]): ≤ 500 nM
- EC50 microphysiometer (full length human TPO-R [10]): ≤ 500 nM
- IC50 (soluble TPO-R [4]): ≤ 500 nM
- IC50 (soluble TPO-R [11]): ≤ 500 nM
B18: [drawing CHEM-US-00030] (SEQ ID NO:185)(SEQ ID NO:185) (peptide)
peptide: CIEGPTLRQWLAARA
modifications: also: further groups not given here
notes: also called [drawing CHEM-US-00062]

- EC50 microphysiometer (full length human TPO-R [8]): ≤ 200000 nM
- IC50 (soluble TPO-R [9]): ≤ 200000 nM
B19: SEQ ID NO:12 cyclized, ADG - deletion (peptide)
peptide: CPTLREWISFC
modifications: disulfide 1-11 (inferred); not fully specified

- EC50 cell proliferation (full length human TPO-R [3]): ≤ 500 nM
- EC50 microphysiometer (full length human TPO-R [3]): ≤ 500 nM
- IC50 (soluble TPO-R [4]): ≤ 500 nM
B20: [drawing CHEM-US-00037] (SEQ ID NO:189)(SEQ ID NO:189) (peptide)
peptide: DGPTLREWISFC
modifications: also: further groups not given here
notes: as for B1

- EC50 cell proliferation (full length human TPO-R [8]): ≤ 500 nM
- EC50 microphysiometer (full length human TPO-R [8]): ≤ 500 nM
- IC50 (soluble TPO-R [13]): ≤ 500 nM
B21: SEQ ID NO:12 cyclized, S - A (peptide)
peptide: CADGPTLREWIAFC
modifications: also: cyclized, mode not given here

- IC50 (soluble TPO-R [5]): ≤ 500 nM
B22: L A I E G P T L R Q W L H G N G R D T (peptide)
peptide: LAIEGPTLRQWLHGNGRDT
notes: free synthetic peptide

- EC50 cell proliferation (full length human TPO-R [6]): ≤ 500 nM
- EC50 microphysiometer (full length human TPO-R [6]): ≤ 200000 nM
B23: SEQ ID NO:173 compound, free acid form (peptide)
peptide: ADGPTLREWISFC-OH
modifications: also: further groups not given here
